According to paper PMC4381330, “Identification of a novel selective agonist of PPARγ with no promotion of adipogenesis and less inhibition of osteoblastogenesis” (Scientific Reports, 2015):
No end group written: not given here.

These binders were tested against T1, GST-fused human PPARγ-LBD (human) (assay: AlphaScreen or HTRF; LanthaScreen TR-FRET coregulator peptide assay; serial concentrations of rosiglitazone with GST-PPARγ-LBD, terbium-labeled anti-GST antibody and fluorescein-labeled peptide, 4 h; 520 nm/495 nm ratio). Conditions: both partners purified.
T1 construct: Kit protein, detected through a terbium-labeled anti-GST antibody
T1 sequence (P37231 whole entry, the tested form may be a part): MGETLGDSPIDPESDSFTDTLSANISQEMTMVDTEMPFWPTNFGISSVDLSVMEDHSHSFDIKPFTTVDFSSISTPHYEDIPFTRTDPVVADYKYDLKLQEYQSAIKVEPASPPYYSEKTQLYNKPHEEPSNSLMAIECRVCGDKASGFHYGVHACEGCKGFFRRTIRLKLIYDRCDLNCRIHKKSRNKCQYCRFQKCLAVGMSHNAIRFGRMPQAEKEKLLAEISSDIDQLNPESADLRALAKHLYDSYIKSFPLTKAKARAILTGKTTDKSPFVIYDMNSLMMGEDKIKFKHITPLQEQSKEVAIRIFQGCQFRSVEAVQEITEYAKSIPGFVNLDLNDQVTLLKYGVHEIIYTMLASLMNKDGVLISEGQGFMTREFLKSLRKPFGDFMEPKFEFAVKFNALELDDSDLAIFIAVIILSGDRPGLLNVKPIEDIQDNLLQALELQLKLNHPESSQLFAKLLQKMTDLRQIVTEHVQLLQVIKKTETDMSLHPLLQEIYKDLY

Row | Binder | efficacy (maximum recruitment, % of rosiglitazone), with rosiglitazone [%]
1 | NTKNHPMLMNLLKDNPAQD (also: fluorescein label, position not given here) | 100
2 | VTLTSPLLVNLLQSDISAG (also: fluorescein label, position not given here) [nuclear receptor coactivator 250 (RAP250) peptide, fluorescein-labeled] | 100
3 | EAEEPSLLKKLLLAPANTQ (also: fluorescein label, position not given here) [PPARγ coactivator 1α (PGC-1α) peptide, fluorescein-labeled] | 100

Each binder was assayed against T1, GST-fused human PPARγ-LBD (assay: AlphaScreen or HTRF; LanthaScreen TR-FRET coregulator peptide assay; serial concentrations of F12016 with GST-PPARγ-LBD, terbium-labeled anti-GST antibody and fluorescein-labeled peptide, 4 h; coactivator data as percent of the maximum of rosiglitazone). Conditions: both partners purified.

Row | Binder | efficacy (maximum recruitment, % of rosiglitazone), with F12016 [%]
4 | NTKNHPMLMNLLKDNPAQD (also: fluorescein label, position not given here) | 17
5 | VTLTSPLLVNLLQSDISAG (also: fluorescein label, position not given here) [nuclear receptor coactivator 250 (RAP250) peptide, fluorescein-labeled] | 25
6 | EAEEPSLLKKLLLAPANTQ (also: fluorescein label, position not given here) [PPARγ coactivator 1α (PGC-1α) peptide, fluorescein-labeled] | 57
